Assay results taken from IntAct's records for PubMed 11604410.

B1: Diablo IAP-binding mitochondrial protein (Mus musculus), Q9JIQ3 (parent)
chain: MAALRSWVTRSVCSLFRYRQRFPVLANSKKRCFSELIKPWHKTVLTGFGMTLCAVPIAQKSEPQSLSNEALMRRAVSLVTDSTSTFLSQTTYALIEAITEYTKAVYTLVSLYRQYTSLLGKMNSQEEDEVWQVIIGARVEMTSKQQEYLKLETTWMTAVGLSEMAAEAAYQTGADQASITARNHIQLVKSQVQEVRQLSQKAETKLAEAQTKELHQKAQEVSDEGADQEEEAYLRED
B2: Serine protease HTRA2, mitochondrial (Mus musculus), Q9JIY5 (parent)
chain: MAALKAGRGANWSLRAWRALGGIFWRKPPLLAPDLRALLTSGTPDSQIWMTYGTPSLPAQVPEGFLASRADLTSRTPDLWARLNVGTSGSSDQEARRSPGSRRREWLAVAVGAGGAVVLLLWGWGRGLSTVLAAVPAPPPTSPRSQYNFIADVVEKTAPAVVYIEILDRHPFSGREVPISNGSGFVVASDGLIVTNAHVVADRRRVRVRLPSGDTYEAMVTAVDPVADIATLRIQTKEPLPTLPLGRSADVRQGEFVVAMGSPFALQNTITSGIVSSAQRPARDLGLPQNNVEYIQTDAAIDFGNSGGPLVNLDGEVIGVNTMKVTAGISFAIPSDRLREFLHRGEKKNSWFGTSGSQRRYIGVMMLTLTPSILIELQLREPSFPDVQHGVLIHKVILGSPAHRAGLRPGDVILAIGEKLAQNAEDVYEAVRTQSQLAVRIRRGSETLTLYVTPEVTE

Variants of: B1
Conditions: with xiap_mouse Xiap
With MAALRSWVTRSVCSLFRYRQRFPVLANSKKRCFSELIKPWHKTVLTGFGMTLCGVPIAQKSEPQSLSNEALMRRAVSLVTDSTSTFLSQTTYALIEAITEYTKAVYTLVSLYRQYTSLLGKMNSQEEDEVWQVIIGARVEMTSKQQEYLKLETTWMTAVGLSEMAAEAAYQTGADQASITARNHIQLVKSQVQEVRQLSQKAETKLAEAQTKELHQKAQEVSDEGADQEEEAYLRED [A54G] the “effect of a mutation on the interaction” value was “disrupting interaction”.

Variants of: B2
Conditions: with xiap_human XIAP
With MAALKAGRGANWSLRAWRALGGIFWRKPPLLAPDLRALLTSGTPDSQIWMTYGTPSLPAQVPEGFLASRADLTSRTPDLWARLNVGTSGSSDQEARRSPGSRRREWLAVAVGAGGAVVLLLWGWGRGLSTVLAAVPAPPPTSPRSQINFIADVVEKTAPAVVYIEILDRHPFSGREVPISNGSGFVVASDGLIVTNAHVVADRRRVRVRLPSGDTYEAMVTAVDPVADIATLRIQTKEPLPTLPLGRSADVRQGEFVVAMGSPFALQNTITSGIVSSAQRPARDLGLPQNNVEYIQTDAAIDFGNSGGPLVNLDGEVIGVNTMKVTAGISFAIPSDRLREFLHRGEKKNSWFGTSGSQRRYIGVMMLTLTPSILIELQLREPSFPDVQHGVLIHKVILGSPAHRAGLRPGDVILAIGEKLAQNAEDVYEAVRTQSQLAVRIRRGSETLTLYVTPEVTE [Y147I] the “effect of a mutation on the interaction” value was “increasing interaction”.

Variants of: B2
Conditions: with xiap_human XIAP
Remark: another data set of the same source
MAALKAGRGANWSLRAWRALGGIFWRKPPLLAPDLRALLTSGTPDSQIWMTYGTPSLPAQVPEGFLASRADLTSRTPDLWARLNVGTSGSSDQEARRSPGSRRREWLAVAVGAGGAVVLLLWGWGRGLSTVLAAVPAPPPTSPGSQYNFIADVVEKTAPAVVYIEILDRHPFSGREVPISNGSGFVVASDGLIVTNAHVVADRRRVRVRLPSGDTYEAMVTAVDPVADIATLRIQTKEPLPTLPLGRSADVRQGEFVVAMGSPFALQNTITSGIVSSAQRPARDLGLPQNNVEYIQTDAAIDFGNSGGPLVNLDGEVIGVNTMKVTAGISFAIPSDRLREFLHRGEKKNSWFGTSGSQRRYIGVMMLTLTPSILIELQLREPSFPDVQHGVLIHKVILGSPAHRAGLRPGDVILAIGEKLAQNAEDVYEAVRTQSQLAVRIRRGSETLTLYVTPEVTE [R144G] was tested, and the “effect of a mutation on the interaction” value was “disrupting interaction”.
